Measurements from the DeepSol protein solubility set.

Assay: soluble on expression in E. coli; label from the status in PepcDB or PDB records

Sequence | soluble on expression in E. coli
MGSDKIHHHHHHMRILLIHQNFPGQFKHLAPALVANGHEVRTLTLRQDLPDQWQGVTVHRYRAQRNSSPTVHPWVGDFETKVIRGEACFRAALQLRNQGYQPDLILAHPGWGETLFLQDVWPAAKLAIYCEFYYRSAGSDVDFDPEFQRPQGEEDTACRLQLKNLIYTMQGDRVTAGIAPTHWQADQFPEPLRSKITVVHDGIDTEAIAPNPSATITLNNQLKLGRNDEVITFVNRNLEPYRGYHIFMRSLPEILQQRPKARVILVGGDDVSYGARPPAGTWKQIFLKEVADRLDLSRVHFVGKIPYNAFLSLLQVSSVHVYLTYPFVLSWSLIEAMSCGCAIVASDTAPVREVISDGETGRLVNFFDPAGLAATVSELLASPSARAKLGKKARLFAQNHYDLQRVCLPQQMQWVRSLA | not soluble
MAHHHHHHMNEPSSGETNLQGGEDDVSAKGRSYGGAGGEKDAESNMNPSDNNTSSAVEDNHENSAQKEGADELGEDALNEMFDDFLKDIENISSNMENQQEGKKLNKGDAESEIARLLANKNSSPFEIFGIHEDVDMEKIKSKYRRLSVLIHPDKCKIEKASEAFHILNKAYEELKKDDIKEQYKSVYETAKKNIIKKLNLKKIRNELNEYLNKNEEEYEITKEVQLLINEECENLLKVQKEKMEYAQKCKLANLQYAKEKEEEKMKEELKKEEERKLWIEGREERVNNWKNYKKDNLKTEKEFHIYKNVGKKKEERTEEEKEKLKRISTTNPMEK | soluble
MGSDKIHHHHHHLNTTLSEYSIENLYGLYNHSLKFNDGESIAILHGPNGVGKTALLRSITYLFNSDFSSLSKIPFSRLFAKLSDNTEIIVTRKGVTKEQLLKHSQELHKISIEIKSKDKTTTSFSLNEAQLRPELLPPWIVLSDDGSYIDERNGMLFPEEFLHQSLFGKNKQKEIRNRETATQILEKIKVHFVETNRLYRSNSDTTWKRKKEKEMVASVDECAKHLVVLISTALKDYGKKSQELDQSFPHRFISEPIAQMSLDKLKTRLNELASQLKKLRKIGLLDAEGIQPFDPESLDKVEKSKLEIMNLYVRDSEQKLAVFDNLSKRIQVLLDGLNSKFKNKNIQLNKERGLIARGPNDFDLSLSDLSSGEQHEIVLLYELLFKVAPNTLVLIDEPELSLHMTWQKSFLPELLSISREIGFSSILATHSPFIVGDRYDLLISLDTKNNNDSME | not soluble
MPMFIVNTNVPRASVPDGFLSELTQQLAQATGKPPQYIAVHVVPDQLMAFGGSSEPCALCSLHSIGKIGGAQNRSYSKLLCGLLAERLRISPDRVYINYYDMNAANVGWNNSTFALEHHHHHH | soluble
MASQLTDAFARKFYYLRLSITDVCNFRCTYCLPDGYKPSGVTNKGFLTVDEIRRVTRAFARLGTEKVRLTGGEPSLRRDFTDIIAAVRENDAIRQIAVTTNGYRLERDVASWRDAGLTGINVSVDSLDARQFHAITGQDKFNQVMAGIDAAFEAGFEKVKVNTVLMRDVNHHQLDTFLNWIQHRPIQLRFIELMETGEGSELFRKHHISGQVLRDELLRRGWIHQLRQRSDGPAQVFCHPDYAGEIGLIMPYEKDFCATCNRLRVSSIGKLHLCLFGEGGVNLRDLLEDDTQQQALEARISAALREKKQTHFLHQNNTGITQNLSYIGGLEHHHHHH | not soluble
VLGAIENVEIADIKQAFTARIDTGATTSSLNAVDLQEFERNGSQWVRFHLVNQDVKADDGKLEWITAPVIRNVKIRQATADDAERRPVVELWIKLGAIHEKVQFTLADRSHMTHSVLLGREFIQDIAVVDVSKEFVQSKK | soluble
QVKLQQSGGGLVKPGASLKLSCVTSGFTFRKFGMSWVRQTSDKCLEWVASISTGGYNTYYSDNVKGRFTISRENAKNTLYLQMSSLKSEDTALYYCTRGYSSTSYAMDYWGQGTTVTVSGIEGR | soluble
MVLEKIEPAQEEHEKYHSNVKELSHKFGIPNLVARQIVNSCAQCQQKGEAIHGQVNAELGTWQMDCTHLEGKIIIVAVHVASGFIEAEVIPQESGRQTALFLLKLASRWPITHLHTDNGANFTSQEVKMVAWWIGIEQSFGVPYNPQSQGVVEAMNHHLKNQISRIREQANTIETIVLMAVHCMNFKRRGGIGDMTPSERLINMITTEQE | soluble
